Test results reported in article PMC10294715, “Single-cell RNA-seq uncovers dynamic processes orchestrated by RNA-binding protein DDX43 in chromatin remodeling during spermiogenesis”.

Biological target: DDX43-KI (Mus musculus, UniProt D3Z6P9 1-646, E395Q)
Experiment: EMSA; EMSA: 10 nM biotin-RNA, 50 mM Tris-HCl pH 7.5, 100 mM KCl, 2.5% glycerol, 0.05% NP-40, 4 mM EDTA, 1 mM DTT, RiboLock 2 U, 37 C 30 min; 8% native TBE PAGE at 4 C; G4 folded in 50 mM Tris-HCl pH 7.5, 150 mM KCl, 0.1 mM EDTA
Conditions: protein: recombinant; tags: His tag (Ni-NTA, pET28a); label: 3' biotin; single strand

Chain of DDX43-KI (D3Z6P9 entry or part of it E395Q): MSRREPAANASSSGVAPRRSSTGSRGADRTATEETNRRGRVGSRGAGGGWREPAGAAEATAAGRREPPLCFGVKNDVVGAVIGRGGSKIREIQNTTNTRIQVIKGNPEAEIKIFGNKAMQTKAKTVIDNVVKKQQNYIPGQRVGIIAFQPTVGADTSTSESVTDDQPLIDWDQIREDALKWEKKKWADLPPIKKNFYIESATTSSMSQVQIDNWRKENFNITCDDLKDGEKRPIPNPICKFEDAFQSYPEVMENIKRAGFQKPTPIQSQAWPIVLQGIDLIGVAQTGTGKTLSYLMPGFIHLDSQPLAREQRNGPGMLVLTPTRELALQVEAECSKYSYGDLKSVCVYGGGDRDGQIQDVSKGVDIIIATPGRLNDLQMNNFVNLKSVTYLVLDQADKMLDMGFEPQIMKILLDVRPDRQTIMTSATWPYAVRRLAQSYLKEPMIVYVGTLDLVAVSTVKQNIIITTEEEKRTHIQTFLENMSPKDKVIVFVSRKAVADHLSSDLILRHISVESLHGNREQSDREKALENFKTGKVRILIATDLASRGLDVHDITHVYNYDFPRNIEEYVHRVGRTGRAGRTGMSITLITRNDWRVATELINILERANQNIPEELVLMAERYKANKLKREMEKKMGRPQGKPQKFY

B1: ssRNA (ssRNA)
RNA: ACCGCUGCCGUCGCUCCG
- binding result: no binding
